The target in the experiment is GFP-tagged Rab11a (UniProt P62491). Description: cell-based or functional assay.
Sequence of UniProt P62491 (P62491 whole entry): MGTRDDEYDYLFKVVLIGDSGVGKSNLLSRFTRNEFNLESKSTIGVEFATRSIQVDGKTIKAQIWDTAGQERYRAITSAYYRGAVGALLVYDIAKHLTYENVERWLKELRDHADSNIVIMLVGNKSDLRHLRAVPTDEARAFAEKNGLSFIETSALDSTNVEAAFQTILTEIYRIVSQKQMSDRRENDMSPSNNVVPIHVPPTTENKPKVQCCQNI

“mCherry-MyoVa(1100-1853) fusion protein (from UniProt Q9Y4I1 1100-1828)” registered a colocalisation (confocal microscopy, HeLa cells) of 100%.

These data come from EP2325637A1.
